Target: human DOT1L^CC2 (second coiled-coil domain of DOT1L) (human) (UniProt Q8TEK3)
Assay: SEC

- stoichiometry N: 2
Substance: human DOT1L^CC2 (second coiled-coil domain of DOT1L) (from UniProt Q8TEK3 1-1537) (domain or fragment)
